Target: AMA1/E, refolded recombinant Plasmodium falciparum (3D7) AMA-1 ectodomain (amino acids 83-531) with N- and C-terminal histidine tags (Plasmodium falciparum 3D7) (UniProt P22621)
Assay: ELISA on plate-coated refolding mixtures of r-AMA1/E (GSH/GSSG 1/0.1 mM and 1/0.25 mM), against r-AMA1/E diluted in phosphate buffer with EDTA alone

## rat monoclonal antibody 4G2dc1
  fold ELISA reactivity over the phosphate buffer control: 5 fold

Source: US20030138450A1
